Test system: Saccharomyces cerevisiae
Assay: transcriptional activation domain activity (GFP:mCherry ratio, weighted mean of sorted bins, harmonized to initial dataset scale) (arbitrary fluorescence ratio units); higher = stronger transcriptional activation
Settings: beta-estradiol 1 µM; induction time 4 h
Summary of the method: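 The listed activation activity is a read-weighted mean of bin median fluorescence, averaged across barcodes and linearly mapped onto the initial dataset scale. Barcoded tiles, fused to an estradiol-inducible synthetic transcription factor, were integrated at URA3 in yeast diploids bearing a GFP reporter. Cells were held 4 hours at 30 °C in SC with 1 uM beta-estradiol, sorted into 8 GFP:mCherry bins, and sequenced, and tiles with fewer than 50 reads were excluded.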

Compared with “PGEVSEAEANGEVKAEGEVVATDDAAKPKKKKSKKSRKARAAKAATEDEEGAA”, “PGKCINEFIEVVCKLADSGRLSLRMLVDIVVLFWNLTRVHCEQFSHKFLRLLH” is higher in “transcriptional activation domain activity” value: under 6570 for the first, 15900 for the second.

First: PGLILVYSHLNLLLRNHADLEMIYIIGPGHGAPAALAALWLEGSLERFYPGEY
Second: PGLVGVFFIFSSPFSGFCFCFCFCLFELIFFFFFFFYYFLSRIGVLTRLSAGF
The “transcriptional activation domain activity” value of the first is lower: 31000 for the first, 45800 for the second.

Compared with “PGVRGNTESIFLLICNLPYLEHPDKVARTVYKIIWGEHHRNLLRLTYWLHRCP”, “PGYVVQYKNSLIGKHFKMLQQLGVFYLHDLCAPLILDLWKATGELGAYLWFPE” is lower in “transcriptional activation domain activity” value: 68200 for the first, 40900 for the second.

Compared with “PHGLLLPLLAHLFSLVLKISFLFCFEYKLAIFIFALVWQSLVVASLTCGFVFV”, “PHHKWLVPTPFASHAFHPVDGYAQSVPYHLFVFLFPMHRLLYLILFVAVNFWS” is lower in “transcriptional activation domain activity” value: 55700 for the first, 48000 for the second.

Going from “PHHKWVVPTPFSSHAFHPVDGWLQSIPYHIFILVFPLHRVLYLVLFVLINFWT” to “PHLFVNQGKLESYAGVVTRVVDLVLGIYVIDDCHMLILTYWPLLSPLTVLRTG”, the “transcriptional activation domain activity” value falls from 59200 to 51000.

First: PHTYNVILFLVIHDPEADVINRVKAYVTYVLRTMPKQLRLESFEMVFIRVLHL
Second: PIARESSSLFLANTPYLSDFLTMGSSYGGSGGFAKSITADPSLDYFNYKNHSH
The “transcriptional activation domain activity” value of the first is lower: 54600 for the first, 68600 for the second.

Going from “PIDPETGRPKKGRPRKSVDAASAVGTSSTGEPQAKRARGRPKKNAGAVAATAV” to “PIEYNTWLIFRQFVDIILLNDFVAYCMFAFSHFRVPNNLSITMHLLRWICGLA”, the “transcriptional activation domain activity” value falls from 51100 to 42000.

First: PIGIFFFFPFVWLFRVFIFLCISYCCFLVPYVCSRGSSFFWLPVSTLFLSFLF
Second: PIHALFCTHIWLLFKLCILCVLFLLSLLCLYGGSMINTGLRIILHLLLCVYLF
The “transcriptional activation domain activity” value of the first is lower: 45000 for the first, 81800 for the second.

Compared with “PIHAVYLFHLISSTFLLKYIYTYRFYFIFFLPFFLIWILCAAYWWLFFTHHIP”, “PILIPGGLGVVLLHLPASFTKIECNESGFHQFIKRRCRLLLGVEPGMKVVVLT” is higher in “transcriptional activation domain activity” value: 54600 for the first, 60900 for the second.

First: PILLILLLLHVGFFGGYYFVICLGGLFDVCLSQLLVYKWQSFGFYWRIVVFLW
Second: PILYFLSLSLSLPPSLSLFLFLYIINQISRFWLVLFQLFFLFLFLLFPSILTS
The “transcriptional activation domain activity” value of the first is higher: 78100 for the first, 62800 for the second.

First: PIMVVTLPLPAQITQYYPITLVSVLQWFAFWSFSALLTIPWLLCVYQLVTHSL
Second: PINAAISNLMLGMLLFCGSLYTLVTFLPIFHSNCPYYTPLSSPWWRILRALGV
The “transcriptional activation domain activity” value of the first is higher: 54400 for the first, 46000 for the second.

Compared with “PINALCIILSDDSIKALLQEEFPLKQYRDICNKLDVYLSRRRILGILLYMYPT”, “PIPLGYGSLWMYEFLYFCLLHVVFTICDGIYLLRAELTLIILLHFLLSWDEGN” is lower in “transcriptional activation domain activity” value: 72700 for the first, 47600 for the second.

Compared with “PIYNLHFAPSNEYWFSFSYLPGQGQCTLDSSTTSIGQTRYFIWSLSLWRRIFL”, “PKADGDAEPKPKAPRGTKRKAAEETNGAEEGGEAPAAKKAKPASKAKPASKAA” is lower in “transcriptional activation domain activity” value: 70200 for the first, 16400 for the second.

Compared with “PKAEAPKAEAPKPKEEESKKETAKQESKPEPKKADASKIAAPAASKPPAPKPS”, “PKCSSLRKPTNTLQGTNHAYHEHILNTDMDLKILEDLCNISSLYEVPFGKHIN” is higher in “transcriptional activation domain activity” value: 49200 for the first, 115000 for the second.

Going from “PKDEKKQEDDQKAKDGSKSEGDLGEKKEEKVEEKKDDDNKSGEKKDEASKSGD” to “PKDGAKEEKKSSKSRGEEKRSRSDRKEREREEKSSKGSASDKAEQPPKATASS”, the “transcriptional activation domain activity” value falls from 28000 to 6730.

Compared with “PKDSEPEGADKLKPMQEVYGAVRNTGIGTEVDNRDNMIRGRWRKLLHARLAHL”, “PKEAVASTPEEPAASEPVAAPALAAAEPVAAAEAPAAAPVPETKAEEVSIQHL” is lower in “transcriptional activation domain activity” value: 43500 for the first, 23600 for the second.

Compared with “PKEDVQPEPEAQPAESVEAAPASEEQAPVEKTEEAPATEETEESRPSPPAARL”, “PKKEEPKRRSASRKRGSIFGGSLFGKKEEAKKEEEKPVEAAAETKAAETEAPA” is lower in “transcriptional activation domain activity” value: 37600 for the first, 30700 for the second.

First: PKKLQEDTELETEQENQMLNQVGNINYTHDFSLSHEIDDLIRELFGVGTPQKL
Second: PKPAPAAAAAPAPAAAPPAAAPAPEPKKYAPPPARPAPAPAAAPVAAAAAAAP
The “transcriptional activation domain activity” value of the first is higher: 65300 for the first, 9320 for the second.

Going from “PKPKAKTPSKAKKKAEPIPKAKAAPKPKEKTTPNTPARRGRPRKEKAAAETPM” to “PKPVPEQEMKDAAEKPEPEETKAAGEVKPEDAMEVDQTSKPAKSKKGKIVKRR”, the “transcriptional activation domain activity” value falls from 37500 to 24400.

Going from “PKQYCVRPNAARLEPGERVEVQVLLQPMKEDPPEDTKCRDKFLIQSAAIPPQH” to “PKRASQGRNFNTLFDKYFTGKDWEIHIMRTLRPDIFILLCVLFVPTEFKEIHD”, the “transcriptional activation domain activity” value falls from 39200 to 37700.

Going from “PKRGRGRPPKDPAAKAAAAAAAAEAEANGEKKPGRGRPRKNPVPSGEGGEAVP” to “PKRKRAAPKKKDAEDNTEEKPKRGRKKKEENGDAEEKPKKAPVRKARATKKVE”, the “transcriptional activation domain activity” value falls from 19600 to under 6570.

From the supplement of paper PMC12636428
